The values that follow come from paper PMC10516938, “Conformational dynamics of cohesin/Scc2 loading complex are regulated by Smc3 acetylation and ATP binding” (Nature Communications, 2023).

One assay deals with T1, Smc3^QQ S72C (S. cerevisiae, UniProt P47037 1-1230, S72C | K112Q | K113Q).
T1 construct: Smc3, S. cerevisiae; source: S. cerevisiae W303, late G1 arrested cells, whole-cell extract
T1 sequence (looked up): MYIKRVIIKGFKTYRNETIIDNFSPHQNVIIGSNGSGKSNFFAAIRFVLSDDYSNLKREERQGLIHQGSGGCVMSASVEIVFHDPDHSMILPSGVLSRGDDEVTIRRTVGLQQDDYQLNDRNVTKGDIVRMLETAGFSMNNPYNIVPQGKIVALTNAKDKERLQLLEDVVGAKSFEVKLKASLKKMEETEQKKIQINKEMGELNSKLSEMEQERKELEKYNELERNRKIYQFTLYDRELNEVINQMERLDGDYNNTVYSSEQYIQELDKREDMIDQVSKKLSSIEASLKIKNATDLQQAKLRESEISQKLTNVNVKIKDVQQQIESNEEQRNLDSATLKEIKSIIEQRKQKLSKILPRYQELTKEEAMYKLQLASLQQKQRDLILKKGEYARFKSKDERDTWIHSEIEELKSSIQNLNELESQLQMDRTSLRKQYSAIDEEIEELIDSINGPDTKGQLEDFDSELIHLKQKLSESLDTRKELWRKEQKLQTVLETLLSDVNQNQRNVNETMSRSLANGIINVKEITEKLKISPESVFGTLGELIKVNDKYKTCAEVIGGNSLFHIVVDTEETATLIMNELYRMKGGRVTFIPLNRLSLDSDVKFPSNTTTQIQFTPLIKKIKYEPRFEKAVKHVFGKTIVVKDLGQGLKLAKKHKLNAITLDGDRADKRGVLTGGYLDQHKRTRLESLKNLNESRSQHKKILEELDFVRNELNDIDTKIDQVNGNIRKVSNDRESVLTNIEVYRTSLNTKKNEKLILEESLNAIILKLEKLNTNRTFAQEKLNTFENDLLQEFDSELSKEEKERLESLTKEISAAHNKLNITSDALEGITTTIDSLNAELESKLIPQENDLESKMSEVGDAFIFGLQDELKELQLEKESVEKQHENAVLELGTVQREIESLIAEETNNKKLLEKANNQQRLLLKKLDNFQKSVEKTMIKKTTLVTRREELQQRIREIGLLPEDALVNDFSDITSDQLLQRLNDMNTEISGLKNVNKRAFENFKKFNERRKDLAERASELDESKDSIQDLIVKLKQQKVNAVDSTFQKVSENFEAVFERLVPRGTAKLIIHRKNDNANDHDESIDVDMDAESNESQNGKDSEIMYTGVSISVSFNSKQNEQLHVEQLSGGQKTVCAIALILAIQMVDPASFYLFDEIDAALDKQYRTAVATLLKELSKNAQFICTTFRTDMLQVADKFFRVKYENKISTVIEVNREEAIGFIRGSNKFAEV
Put plainly: cross-linking; in vivo BMOE cross-link of cysteine pairs in yeast cells arrested in late G1 by non-degradable Sic1(9m); Scc1-PK immunoprecipitated, western blot, band intensities quantified. The note with it: partners not purified. A general note: In western blotting, separated proteins are transferred to a membrane and probed.

In the next assay the target is T2, Smc3 S72C E1155Q (S. cerevisiae, UniProt P47037 1-1230, S72C | E1155Q).
T2 construct: Smc3, S. cerevisiae; also called EQ mutant version of Smc3^S72C; source: S. cerevisiae W303, ectopically expressed, late G1 arrested cells, whole-cell extract
T2 sequence (looked up): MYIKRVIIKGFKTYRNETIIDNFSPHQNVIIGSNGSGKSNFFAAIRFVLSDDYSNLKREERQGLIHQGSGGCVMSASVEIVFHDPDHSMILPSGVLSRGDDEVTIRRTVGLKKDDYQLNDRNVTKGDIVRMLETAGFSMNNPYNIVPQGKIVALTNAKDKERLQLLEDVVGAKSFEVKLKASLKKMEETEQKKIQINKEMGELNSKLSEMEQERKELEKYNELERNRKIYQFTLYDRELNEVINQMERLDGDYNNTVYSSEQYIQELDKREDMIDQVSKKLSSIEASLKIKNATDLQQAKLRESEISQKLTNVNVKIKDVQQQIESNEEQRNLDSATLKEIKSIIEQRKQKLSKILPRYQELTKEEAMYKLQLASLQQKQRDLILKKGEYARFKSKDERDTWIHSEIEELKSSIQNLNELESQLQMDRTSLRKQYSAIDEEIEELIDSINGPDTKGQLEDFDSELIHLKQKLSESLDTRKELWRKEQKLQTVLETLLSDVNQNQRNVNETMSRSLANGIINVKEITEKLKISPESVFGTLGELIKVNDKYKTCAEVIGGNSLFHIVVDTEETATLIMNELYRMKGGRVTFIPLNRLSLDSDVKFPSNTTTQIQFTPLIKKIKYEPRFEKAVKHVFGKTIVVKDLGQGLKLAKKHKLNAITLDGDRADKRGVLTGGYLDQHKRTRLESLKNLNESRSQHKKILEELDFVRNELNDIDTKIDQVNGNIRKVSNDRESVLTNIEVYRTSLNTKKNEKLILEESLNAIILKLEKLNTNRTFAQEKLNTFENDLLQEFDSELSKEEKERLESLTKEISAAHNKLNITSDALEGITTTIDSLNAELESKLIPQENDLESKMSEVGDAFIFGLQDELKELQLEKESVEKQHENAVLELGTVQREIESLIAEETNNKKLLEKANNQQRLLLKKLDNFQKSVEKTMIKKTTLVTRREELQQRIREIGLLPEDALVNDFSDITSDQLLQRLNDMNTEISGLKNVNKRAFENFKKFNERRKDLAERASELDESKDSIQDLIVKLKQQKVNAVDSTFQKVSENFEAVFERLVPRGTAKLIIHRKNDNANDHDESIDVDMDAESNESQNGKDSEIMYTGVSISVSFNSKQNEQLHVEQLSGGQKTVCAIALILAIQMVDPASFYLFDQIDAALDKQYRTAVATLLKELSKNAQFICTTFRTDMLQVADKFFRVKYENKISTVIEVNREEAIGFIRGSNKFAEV
Described as above. The note with it: partners not purified.

B1: Scc2 E819C (natural protein, S. cerevisiae, UniProt Q04002 1-1493, looked up)
chain: MSYPGKDKNIPGRIIEALEDLPLSYLVPKDGLAALVNAPMRVSLPFDKTIFTSADDGRDVNINVLGTANSTTSSIKNEAEKERLVFKRPSNFTSSANSVDYVPTNFLEGLSPLAQSVLSTHKGLNDSINIEKKSEIVSRPEAKHKLESVTSNAGNLSFNDNSSNKKTKTSTGVTMTQANLAEQYLNDLKNILDIVGFDQNSAEIGNIEYWLQLPNKKFVLTTNCLTKLQMTIKNITDNPQLSNSIEITWLLRLLDVMVCNIKFSKSSLKMGLDDSMLRYIALLSTIVLFNIFLLGKNDSNLHRESYIMEPVNFLSDLIESLKILTIEYGSLKIEFDTFQEALELLPKYIRNGPFLDDNVTAKLVYIFSDLLMNNDIEATTNIQFQSFWDNVKRISSDILVSLFGSFDQQRGFIIEELLSHIEKLPTKRIQKKLRKVGNQNIYITDFTFTLMSMLENINCYSFCNQMKDIAPENIDLLKNEYKKQEEFLFNIVEHINDTILERFFKNPSALRYVIDNFVQDLLLLISSPQWPVTEKILSSLLKRLLSVYSPSMQVSANIETICLQLIGNIGSTIFDIKCSTRDHEDNNLIKMINYPETLPHFFKSFEECIAYNETIKCRRSATRFLWNLRLGTILILEEYTKDAKEQIITVDNELKKILEQIKDGGLGPELENREADFSTIKLDYFSILHAFELLNLYDPYLKLILSLLAKDKIKLRSTAIKCLSMLASKDKVILSNPMVKETIHRRLNDSSASVKDAILDLVSINSSYFEFYQQINNNYNDDSIMVRKHVLRINEKMYDETNDIVTKVYVIARILMKICDEEDNIIDMARLILLNRWILKVHEVLDQPEKLKEISSSVLLVMSRVAIMNEKCSQLFDLFLNFYLLNKEAHSKEAYDKITHVLTILTDFLVQKIVELNSDDTNEKNSIVDKQNFLNLLAKFADSTVSFLTKDHITALYPYMVSDEKSDFHYYILQVFRCTFEKLANFKQKFLYDLETTLLSRLPKMNVREIDEAMPLIWSVATHRHDTARVAKACSSCLSHLHPYINKANNEEAAIVVDGKLQRLIYLSTGFARFCFPKPSNDKIAFLQEGETLYEHITKCLLVLSKDKITHVIRRVAVKNLTKLCGNHPKLFNSRHVLHLLDKEFQSDQLDIKLVILESLYDLFLLEERKSVRNTGVNSTLSSNSILKKKLLKTNRVEFANDGVCSALATRFLDNILQLCLLRDLKNSLVAIRLLKLILKFGYTNPSHSIPTVIALFASTSQYIRHVAYELLEDLFEKYETLVFSSLSRGVTKAIHYSIHTDEKYYYKHDHFLSLLEKLCGTGKKNGPKFFKVLKRIMQSYLDDITDLTSTNSSVQKSIFVLCTNISNITFVSQYDLVSLLKTIDLTTDRLKEVIMDEIGDNVSSLSVSEEKLSGIILIQLSLQDLGTYLLHLYGLRDDVLLLDIVEESELKNKQLPAKKPDISKFSAQLENIEQYSSNGKLLTYFRKHVKDT
notes: Scc2, S. cerevisiae; source: S. cerevisiae W303, in vivo, whole-cell extract
With B1, the “crosslinking efficiency relative to wild type” value in the assay with Smc3^QQ S72C was around 10%. Further, in the assay with Smc3 S72C E1155Q, the “fold change of the crosslink against wild-type Smc3 (S72C)” value was around 2 fold.
